Data reported in patent publication US20240400657A1 (MorphoSys, published 2024).

Legend:
[1] = target: T1, C5aR expressed on purified human neutrophils (human, UniProt P21730 1-350); assay: cell-based or functional assay
T1 sequence (looked up): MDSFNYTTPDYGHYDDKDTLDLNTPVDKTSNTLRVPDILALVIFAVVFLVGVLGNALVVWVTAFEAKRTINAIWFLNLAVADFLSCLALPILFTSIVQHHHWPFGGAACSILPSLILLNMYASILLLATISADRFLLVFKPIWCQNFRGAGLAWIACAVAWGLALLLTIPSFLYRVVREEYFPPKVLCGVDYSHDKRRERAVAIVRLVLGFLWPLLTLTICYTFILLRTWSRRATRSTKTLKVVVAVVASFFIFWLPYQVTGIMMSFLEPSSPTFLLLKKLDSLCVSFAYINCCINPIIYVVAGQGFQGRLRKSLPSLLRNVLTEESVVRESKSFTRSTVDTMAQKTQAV

[2] = target: T2, HIS6-human C5aR (N/N variant)-HV1B1-GAG (human); assay: ELISA on coated VLPs, IgG titration (N = 2)
T2 construct: also called huC5aR (N/N); human C5aR N/N variant on VLPs

[3] = target: T3, HIS6-human C5aR (D/K variant)-HV1B1-GAG (human); assay: ELISA on coated VLPs, IgG titration (N = 2)
T3 construct: the VLPs were coated for ELISA; also called huC5aR (D/K); human C5aR D/K variant on VLPs

[4] = target: T1, C5aR expressed on purified human …; assay: FACS on purified human neutrophils, IgG titration
Procedure: Neutrophils were purified from EDTA-whole blood samples using a MACSexpress® Neutrophil Isolation Cocktail from Miltenyi Biotec. Briefly, using this kit, cells are isolated using magnetic labeling and negative magnetic separation. […] Measurements were done at the FACS Array device. FACS data were evaluated using FlowJo™, entered into GraphPad® Prism (v4.0) and fitted to the sigmoidal dose-response curve using non-linear regression to calculate the EC50.

[5] = target: T4, full-length human FPR1 expressed on CHO Flp-In cells (human, UniProt P21462 1-350); assay: FACS, CHO Flp-In cells expressing human FPR1, single IgG concentration
T4 construct: also called fMet-Leu-Phe receptor
T4 chain: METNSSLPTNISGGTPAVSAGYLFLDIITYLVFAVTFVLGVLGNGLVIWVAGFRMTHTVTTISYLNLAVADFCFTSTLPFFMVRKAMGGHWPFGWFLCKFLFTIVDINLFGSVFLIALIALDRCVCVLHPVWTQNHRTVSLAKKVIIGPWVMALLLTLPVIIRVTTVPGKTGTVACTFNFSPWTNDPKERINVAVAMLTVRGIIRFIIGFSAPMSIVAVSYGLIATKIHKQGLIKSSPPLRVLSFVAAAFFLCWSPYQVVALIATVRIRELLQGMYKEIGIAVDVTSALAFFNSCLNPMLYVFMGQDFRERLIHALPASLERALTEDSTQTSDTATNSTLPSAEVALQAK

[6] = target: T5, Human FcγRIIIa (1-193)-(158F)-HIS6 (human, UniProt P08637 17-193); assay: BLI (Octet), IgG captured on Protein A sensors, FcγR titrated
T5 construct: Extracellular region with C-terminal 6xHis tag; UniProt P08637 printed
Procedure: (§1) 2.0 nm of IgGs diluted in Octet assay buffer (PBS, 0.05% (v/v) Tween-20, 0.1% (w/v) BSA) were captured on Protein A sensors (FortéBIO, Pall Life Sciences). Kinetic measurements were performed using 7 concentrations of Fc gamma receptors (2n serial dilution) in assay buffer. […] All sensorgrams were fitted using Data Analysis Software 10.0, (FortéBIO, Pall Life Sciences) to determine kₒₙ and koff rate constants, which were used to calculate KD. The raw data was fitted with a 1:1 binding model, with parameter Rₘₐₓ set to local.

[7] = target: T6, Human FcγRI (1-279)_HIS6 (human, UniProt P12314 16-280); assay: as above
T6 construct: Extracellular region with C-terminal 6xHis tag; UniProt P12314 printed
Procedure: as §1

[8] = target: T7, Human FcγRIIB (1-202)-HIS6 (human, UniProt P31994 43-217); assay: as above
T7 construct: Extracellular region with C-terminal 6xHis tag; UniProt P31994 printed
T7 sequence: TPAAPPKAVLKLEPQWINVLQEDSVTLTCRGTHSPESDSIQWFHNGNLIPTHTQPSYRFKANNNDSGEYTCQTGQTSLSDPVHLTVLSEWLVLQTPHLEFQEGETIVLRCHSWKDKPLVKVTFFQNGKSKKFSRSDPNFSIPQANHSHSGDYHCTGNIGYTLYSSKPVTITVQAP
Procedure: as §1

[9] = target: T8, Human FcγRIIa (1-209)-(131H)-HIS6 (human, UniProt P12318 34-209); assay: as above
T8 construct: Extracellular region with C-terminal 6xHis tag; UniProt P12318 printed
T8 sequence: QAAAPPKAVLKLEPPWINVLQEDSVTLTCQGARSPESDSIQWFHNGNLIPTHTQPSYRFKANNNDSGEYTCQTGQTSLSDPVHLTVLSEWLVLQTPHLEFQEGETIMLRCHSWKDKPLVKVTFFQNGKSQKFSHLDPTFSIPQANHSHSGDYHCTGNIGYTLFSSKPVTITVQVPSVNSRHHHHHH
Procedure: as §1

[10] = target: T9, Human FcγRIIa (1-209)-(131R)-HIS6 (human, UniProt P12318 34-209); assay: as above
T9 construct: Extracellular region with C-terminal 6xHis tag; UniProt P12318 printed
T9 chain: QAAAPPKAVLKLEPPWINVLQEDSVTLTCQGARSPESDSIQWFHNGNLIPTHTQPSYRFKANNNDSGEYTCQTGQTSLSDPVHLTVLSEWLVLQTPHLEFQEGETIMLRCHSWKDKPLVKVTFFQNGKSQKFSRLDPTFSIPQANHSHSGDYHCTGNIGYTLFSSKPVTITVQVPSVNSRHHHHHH
Procedure: as §1

[11] = target: T10, Human FcγRIIIa (1-193)-(158V)-HIS6 (human, UniProt P08637 17-193); assay: as above
T10 construct: Extracellular region with C-terminal 6xHis tag; UniProt P08637 printed
Procedure: as §1

[12] = target: T11, full-length human ChemR23 expressed on CHO Flp-In cells (human, UniProt Q99788 1-373); assay: FACS, CHO Flp-In cells expressing human ChemR23, single IgG concentration
T11 construct: also called Chemokine-like receptor 1
T11 sequence: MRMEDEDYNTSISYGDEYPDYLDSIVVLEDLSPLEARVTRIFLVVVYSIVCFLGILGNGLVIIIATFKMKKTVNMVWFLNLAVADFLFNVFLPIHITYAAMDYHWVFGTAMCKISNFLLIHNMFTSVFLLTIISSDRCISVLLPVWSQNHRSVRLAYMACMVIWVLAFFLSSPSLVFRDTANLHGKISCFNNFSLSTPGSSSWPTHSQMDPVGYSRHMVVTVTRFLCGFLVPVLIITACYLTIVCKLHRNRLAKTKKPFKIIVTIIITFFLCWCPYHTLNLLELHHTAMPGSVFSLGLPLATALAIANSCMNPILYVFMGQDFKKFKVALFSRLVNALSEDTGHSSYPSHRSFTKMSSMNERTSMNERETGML

T10 sequence (P08637 other isoform, or with tags, fused parts or gaps): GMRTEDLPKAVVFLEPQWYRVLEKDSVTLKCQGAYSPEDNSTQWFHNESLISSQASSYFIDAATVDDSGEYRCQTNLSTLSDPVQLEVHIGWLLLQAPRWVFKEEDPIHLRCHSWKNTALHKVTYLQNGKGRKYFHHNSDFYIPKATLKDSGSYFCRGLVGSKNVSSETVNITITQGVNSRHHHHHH
T6 sequence (P12314 other isoform, or with tags, fused parts or gaps): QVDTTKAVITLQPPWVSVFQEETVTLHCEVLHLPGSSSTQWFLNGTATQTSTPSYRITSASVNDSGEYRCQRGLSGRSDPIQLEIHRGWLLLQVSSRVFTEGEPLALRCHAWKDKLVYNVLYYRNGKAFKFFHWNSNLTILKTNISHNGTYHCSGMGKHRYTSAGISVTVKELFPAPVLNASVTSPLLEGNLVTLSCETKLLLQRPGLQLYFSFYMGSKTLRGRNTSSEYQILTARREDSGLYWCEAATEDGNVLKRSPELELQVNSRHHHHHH
T5 sequence (P08637 other isoform, or with tags, fused parts or gaps): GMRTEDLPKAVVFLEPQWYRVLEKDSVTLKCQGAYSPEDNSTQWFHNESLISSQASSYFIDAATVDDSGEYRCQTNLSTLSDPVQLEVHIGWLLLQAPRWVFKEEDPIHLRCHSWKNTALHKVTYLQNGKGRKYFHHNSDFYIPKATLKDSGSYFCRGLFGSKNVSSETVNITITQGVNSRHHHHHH

Row | Binder | IgG concentration for 50% inhibition of CD11b upregulation, granulocytes, 15 nM human C5a [1] | IgG concentration for 50% inhibition of CD11b upregulation, granulocytes, 150 nM human C5a [1] | EC50 [2] | EC50 [3] | EC50 [4] | binding result [5] | binding result [6] | binding result [7] | binding result [8] | binding result [9] | binding result [10] | binding result [11] | binding result [12]
1 | MAB #2 (antibody, human IgG1, lambda, lambda 1 light chain) heavy: EVQLVESGGGLVKPGGSLRLSCAASGFTFSSYAMHWVRQAPGKGLEWVGRIKSVAQGGTTDYAAHVKGRFTISRDDSKNTLYLQMNSLKTEDTAVYYCARVSHSTFDVWGQGTLVTVSSASTKGPSVFPLAPSSKSTSGGTAALGCLVKDYFPEPVTVSWNSGALTSGVHTFPAVLQSSGLYSLSSVVTVPSSSLGTQTYICNVNHKPSNTKVDKRVEPKSCDKTHTCPPCPAPEAEGAPSVFLFPPKPKDTLMISRTPEVTCVVVDVSHEDPEVKFNWYVDGVEVHNAKTKPREEQYNSTYRVVSVLTVLHQDWLNGKEYKCKVSNKALPSSIEKTISKAKGQPREPQVYTLPPSREEMTKNQVSLTCLVKGFYPSDIAVEWESNGQPENNYKTTPPVLDSDGSFFLYSKLTVDKSRWQQGNVFSCSVMHEALHNHYTQKSLSLSPGK light: not shown | 17 nM | 114 nM | 500 pM | 500 pM | 5400 pM | no binding (tested: 300 nM) | no binding | no binding | no binding | no binding | binds | no binding | no binding (tested: 300 nM)
2 | MAB #1 (antibody, human IgG1, lambda, lambda 1 light chain, VH3-15 framework) heavy: EVQLVESGGGLVKPGGSLRLSCAASGFTFSSYAMHWVRQAPGKGLEWVGRIKSKAQGGTTDYAAHVKGRFTISRDDSKNTLYLQMNSLKTEDTAVYYCARVSFSTFDVWGQGTLVTVSSASTKGPSVFPLAPSSKSTSGGTAALGCLVKDYFPEPVTVSWNSGALTSGVHTFPAVLQSSGLYSLSSVVTVPSSSLGTQTYICNVNHKPSNTKVDKRVEPKSCDKTHTCPPCPAPEAEGAPSVFLFPPKPKDTLMISRTPEVTCVVVDVSHEDPEVKFNWYVDGVEVHNAKTKPREEQYNSTYRVVSVLTVLHQDWLNGKEYKCKVSNKALPSSIEKTISKAKGQPREPQVYTLPPSREEMTKNQVSLTCLVKGFYPSDIAVEWESNGQPENNYKTTPPVLDSDGSFFLYSKLTVDKSRWQQGNVFSCSVMHEALHNHYTQKSLSLSPGK light: not shown | 12 nM | 42 nM | 500 pM | 500 pM | 6000 pM | no binding (tested: 300 nM) | no binding | no binding | no binding | no binding | binds | no binding | no binding (tested: 300 nM)
